{"source": "paper PMC8038350", "about": "“Nordihydroguaiaretic Acid as a Novel Substrate and Inhibitor of Catechol O-Methyltransferase Modulates 4-Hydroxyestradiol-Induced Cyto- and Genotoxicity in MCF-7 Cells” (Molecules, 2021)", "proteins": {"B1": {"name": "catechol O-methyl transferase (COMT) (Homo sapiens) (protein)", "chain": "MGDTKEQRILNHVLQHAEPGNAQSVLEAIDTYCEQKEWAMNVGDKKGKIVDAVIQEHQPSVLLELGAYCGYSAVRMARLLSPGARLITIEINPDCAAITQRMVDFAGVKDKVTLVVGASQDIIPQLKKKYDVDTLDMVFLDHWKDRYLPDTLLLEECGLLRKGTVLLADNVICPGAPDFLAHVRGSSCFECTHYQSFLEYREVVDGLEKAIYKGPGSEAGP", "notes": "recombinant human soluble COMT, hexahistidine-tagged"}}, "substrate": "[H][C@@]12CCc3c(ccc(O)c3O)[C@@]1([H])CC[C@]1(C)[C@@H](O)CC[C@@]21[H]", "experiment": "enzyme kinetics of O-methylation by recombinant COMT, HPLC-DAD (Km)", "type": "biochemical, Homo sapiens", "settings": "S-adenosyl-L-methionine (SAM)"}
{"protein": "B1", "values": [{"measurement": "Km", "setting": "Mg2+", "value": 37.9, "unit": "µM"}, {"measurement": "Vmax", "setting": "Mg2+ docking only: active site, hydrogen bonds with Glu199 and Asn170", "value": 3.26, "unit": "µmol/min/mg"}]}
